In patent publication US20070196350A1, “Compositions and Methods for Effecting Controlled Posterior Vitreous Detachment” (priority 2006, published 2007):
“And” between values parts separate entries of the source, which are not always exact repeats. Identical values can stand only once.

Test system: eyes from Dutch Belted Rabbits (vitreoretinal interface)
Experiment: Ex vivo SEM scoring of residual vitreous (posterior vitreous detachment) after intravitreal injection in rabbit eyes
Set-up: key to Score of vitreo-retinal specimen, IN (Infra-Nasal Area) / Score of vitreo-retinal specimen, INL (Infra-Nasal Inferior Area) / Score of vitreo-retinal specimen, IC (Infra-Central Area) / Score of vitreo-retinal specimen, ICL (Infra-Central Lower Area) / Score of vitreo-retinal specimen, IT (Infra-Temporal Area) / Score of vitreo-retinal specimen, ITL (Infra-Temporal Lower Area): Grade 0 - extensive amount of residual vitreous; Grade 1 - moderate amount of residual vitreous; Grade 2 - mild amount of residual vitreous; Grade 3 - Inner retina visible through sparse collagen fibrils; Grade 4 - None to trace collagen fibrils covering inner retina
Protocol: The purpose of this ex vivo study was to compare the efficacy of 200 μg human-derived plasmin (Bausch & Lomb Incorporated's compound name “BOL-303209-X”) alone and in combination with triamcinolone acetonide (“TA,” a glucocorticoid anti-inflammatory medicament) on PVD in Dutch Belted Rabbits using scanning electron microscopy. This study was designed to use intravitreal injection of TA to enhance clinical observations for clear identification of PVD, to minimize possible inflammatory responses, and to assess whether improved efficacy could be achieved by the combined use of BOL-303209-X and TA.
Twelve (12) normal eyes from six (6) Dutch Belted Rabbits (both male and female) were used. All right eyes from 6 rabbits were injected with BOL-303209-X plus vehicle (Group 1, n=6 eyes) and all left eyes were injected with BOL-303209-X plus TA (Group 2, n=3, 2 mg TA/eye; Group 3, n=3, 4 mg TA/eye). BOL-303209-X was freshly prepared and kept on ice before use.
On the day of operation, rabbits were anesthetized, eyes disinfected and pupils dilated 15-20 minutes prior to injection. Each rabbit received two intravitreal injections. In Groups 1, 2, and 3, an initial 50-μl injection of BOL-303209-X at a dose of 200 μg per eye in a formulation of 5 mM epsilon-aminocaproic acid (“EACA”)/0.05% Tween 80/0.9% saline was given intravitreally in both the right and left eyes. In Group 1 (Control) a second 50-μl injection of formulation vehicle (0.05% Tween 80/0.05% hydroxypropyl methylcellulose (HPMC)/0.9% saline) was delivered in the right eyes 5 minutes after the first injection. In Groups 2 and 3, a formulation containing TA at a dose of either 2 mg (Group 2) or 4 mg (Group 3) was injected into the left eyes in the same way.
Eyes were examined with a slit-lamp biomicroscope assisted with a Volk Lens at 4 days prior to injection for baseline documentation. To evaluate the efficacy of BOL-303209-X, all eyes were directly observed under a surgical microscope for 5 minutes after injection for possible changes in the vitreo-retina. The injected eyes were followed up at 7 and 14 days after injection. Attention was paid particularly to the vitreoretinal interface for signs of PVD and to the retina for signs of toxicity during slit-lamp examination.
Fourteen days after injection the in-life phase of the study was terminated, the rabbits were euthanized by over dose of pentobarbital, their eyes enucleated and fixed in Karnovsky's solution for at least 24 hours. The fixed eyes were processed further for SEM. The posterior pole of each eye was examined. Micrographs at magnifications ranging from 100-2,500× of each specimen or up to 10,000× in some cases were examined to assess the extent of posterior vitreous detachment. The amount of residual vitreous was scored on a scale of 0-4 with a score of 4 representing complete removal of vitreous from the inner retina according to a standard protocol.
After enucleation, the eyes were trimmed of external muscle, fat, and connective tissue, and cut using a razor blade about 3 mm behind the limbus to facilitate penetration of fixative. The eyes were placed in ice-cold fixative consisting of 2% formaldehyde (from paraformaldehyde), 2.5% glutaraldehyde, in 0.1 phosphate buffer, with 0.1 M sucrose and 0.5 mM CaCl2 added, pH 7.2. Each eye was immersed in approximately 40 ml fixative. After one hour, the fixative was exchanged with fresh fixative and the eyes were transported to B&L and stored refrigerated in fixative.
Tissue specimen that included sclera, choroid, retina with the optic nerve (approximately 1 cm in diameter) were surgically removed from each eye. These were dehydrated though a graded ethanol series (30%, 50%, 70%, 85%, 95%, 100%) for thirty minutes per dilution. Dehydrated samples were dried to the critical point (Samdri-PVT-3B, Tousimis, Rockville, Md.) and mounted on aluminum SEM pucks with colloidal graphite (Ted Pella, Inc, Redding, Calif.). […]

[1] = Group 1: 200 μg BOL-303209-X per eye + vehicle, SEM day 14, scale 0-4, one value per eye

B1: BOL-303209-X: human-derived plasmin (Bausch & Lomb Incorporated's compound name “BOL-303209-X”) (protein, UniProt P00747 20-580; P00747 581-810, looked up)
Plasmin heavy chain A: EPLDDYVNTQGASLFSVTKKQLGAGSIEECAAKCEEDEEFTCRAFQYHSKEQQCVIMAENRKSSIIIRMRDVVLFEKKVYLSECKTGNGKNYRGTMSKTKNGITCQKWSSTSPHRPRFSPATHPSEGLEENYCRNPDNDPQGPWCYTTDPEKRYDYCDILECEEECMHCSGENYDGKISKTMSGLECQAWDSQSPHAHGYIPSKFPNKNLKKNYCRNPDRELRPWCFTTDPNKRWELCDIPRCTTPPPSSGPTYQCLKGTGENYRGNVAVTVSGHTCQHWSAQTPHTHNRTPENFPCKNLDENYCRNPDGKRAPWCHTTNSQVRWEYCKIPSCDSSPVSTEQLAPTAPPELTPVVQDCYHGDGQSYRGTSSTTTTGKKCQSWSSMTPHRHQKTPENYPNAGLTMNYCRNPDADKGPWCFTTDPSVRWEYCNLKKCSGTEASVVAPPPVVLLPDVETPSEEDCMFGNGKGYRGKRATTVTGTPCQDWAAQEPHRHSIFTPETNPRAGLEKNYCRNPDGDVGGPWCYTTNPRKLYDYCDVPQCAAPSFDCGKPQVEPKKCPGR
Plasmin light chain B: VVGGCVAHPHSWPWQVSLRTRFGMHFCGGTLISPEWVLTAAHCLEKSPRPSSYKVILGAHQEVNLEPHVQEIEVSRLFLEPTRKDIALLKLSSPAVITDKVIPACLPSPNYVVADRTECFITGWGETQGTFGAGLLKEAQLPVIENKVCNRYEFLNGRVQSTELCAGHLAGGTDSCQGDSGGPLVCFEKDKYILQGVTSWGLGCARPNKPGVYVRVSRFVTWIEGVMRNN
modifications: plasmin plasma-derived
n ≧ 3, number of eyes of the group with mean score of 3 or higher (Group 1 (n=6 eyes): 200 μg BOL-303209-X per eye + vehicle): 2
Mean score of the group (Group 1 (n=6 eyes): 200 μg BOL-303209-X per eye + vehicle, SEM day 14, scale 0-4): 2.6
Mean score of 6 inferior fields, per eye [1]: 3.2 and 2.8 and 2.5 and 1.7 and 3.0
Score of vitreo-retinal specimen, IC (Infra-Central Area) [1]: 4 and 3
Score of vitreo-retinal specimen, ICL (Infra-Central Lower Area) [1]: 3 and 2 and 1
Score of vitreo-retinal specimen, INL (Infra-Nasal Inferior Area) [1]: 3 and 1
Score of vitreo-retinal specimen, IT (Infra-Temporal Area) [1]: 3 and 2
Score of vitreo-retinal specimen, ITL (Infra-Temporal Lower Area) [1]: 3 and 2 and 1
n ≧ 3 (eye with mean score of 3 or higher), per eye (Group 1: 200 μg BOL-303209-X per eye + vehicle, per-eye count): 1
Score of vitreo-retinal specimen, IN (Infra-Nasal Area) (Group 1: 200 μg BOL-303209-X per eye intravitreal + second injection of vehicle, SEM 14 days after injection, scale 0-4, one value per eye): 3 and 2
